Experimental findings from the supplement of paper PMC9112550, “Optimization of the antimicrobial peptide Bac7 by deep mutational scanning” (BMC Biology, 2022) are described below.

This data set relates to Escherichia coli TOP10. Kind of data set: shrunken log2 fold change of peptide-encoding DNA abundance (4.5 h post-induction vs induction); higher = less antimicrobial activity (less host growth inhibition). The note with it: time post-induction: 4.5 h; library: site-saturation at positions 5, 18, 19, 20.
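Note: peptides expressed intracellularly from a pBAD plasmid library in pooled LB shake-flask culture, induced with 0.3% L-arabinose, DNA abundance read by NGS, three biological replicates, DESeq2 with apeglm shrinkage.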

Take RRIRKRPPRLPRPRPRPLNVPRP: the “shrunken log2 fold change” value turned out to be 0.252.
For RRIRERPPRLPRPRPRPNPWPRP the value was -0.0758; for RRIRIRPPRLPRPRPRPGVKPRP, -0.279.
The figure for RRIRKRPPRLPRPRPRPALNPRP is 0.589; for RRIRFRPPRLPRPRPRPGNYPRP it is -0.401; for RRIRTRPPRLPRPRPRPMASPRP it is 0.0589.
For RRIRKRPPRLPRPRPRPNGEPRP the value was 0.189; for RRIRGRPPRLPRPRPRPWTVPRP, -0.0833; for RRIRTRPPRLPRPRPRPMWNPRP, -0.418.
Take RRIRERPPRLPRPRPRPMHYPRP: the “shrunken log2 fold change” value is -0.0285.
For RRIRRRPPRLPRPRPRPHARPRP the value was 0.586; for RRIRTRPPRLPRPRPRPHGMPRP, -0.157.
For RRIRIRPPRLPRPRPRPTQCPRP the value was -0.65; for RRIRPRPPRLPRPRPRPPDVPRP, 0.274.
For RRIRFRPPRLPRPRPRPLKMPRP the value was -0.428.
Consider RRIRHRPPRLPRPRPRPEVDPRP, for which the “shrunken log2 fold change” value is -0.00884.
For RRIRHRPPRLPRPRPRPLMWPRP the value was -0.218; for RRIRIRPPRLPRPRPRPYFSPRP, -0.382.
Consider RRIRMRPPRLPRPRPRPGYIPRP, for which the “shrunken log2 fold change” value is -0.0175.
For RRIRTRPPRLPRPRPRPLDQPRP the value was 0.365; for RRIRYRPPRLPRPRPRPMSSPRP, -0.0121.
For RRIRPRPPRLPRPRPRPESDPRP the value was 0.235; for RRIRTRPPRLPRPRPRPHGPPRP, 0.157.
The figure for RRIRHRPPRLPRPRPRPQKIPRP is 0.0342; for RRIRSRPPRLPRPRPRPCMKPRP it is -1.6.
For the sequence RRIRMRPPRLPRPRPRPAALPRP, the “shrunken log2 fold change” value was found to be 0.292.
For RRIRSRPPRLPRPRPRPLHMPRP the value was 0.0919.
The figure for RRIRSRPPRLPRPRPRPIGPPRP is -0.0999.
For RRIRHRPPRLPRPRPRPFCHPRP the value was -0.308; for RRIRKRPPRLPRPRPRPMAMPRP, 0.325.
As to RRIRIRPPRLPRPRPRPFHVPRP, the “shrunken log2 fold change” value is -0.121.
RRIRSRPPRLPRPRPRPIIRPRP: the “shrunken log2 fold change” value was -1.09.
For RRIRTRPPRLPRPRPRPRRQPRP the value was -0.0389; for RRIRVRPPRLPRPRPRPEPIPRP, 0.0124.
For RRIRSRPPRLPRPRPRPSEWPRP the value was 0.0157.
With RRIRQRPPRLPRPRPRPTKGPRP, the “shrunken log2 fold change” value was -0.0785.
The figure for RRIRPRPPRLPRPRPRPHDEPRP is -0.0869; for RRIRHRPPRLPRPRPRPNRRPRP it is -0.00884; for RRIRHRPPRLPRPRPRPGSYPRP it is -0.287.
With RRIRARPPRLPRPRPRPYLMPRP, the “shrunken log2 fold change” value was -0.648.
For RRIRPRPPRLPRPRPRPALDPRP the value was 0.628.
Regarding RRIRNRPPRLPRPRPRPWTTPRP, the “shrunken log2 fold change” value is -0.0122.
The figure for RRIRDRPPRLPRPRPRPPFVPRP is 0.0811.
For the sequence RRIRDRPPRLPRPRPRPMLNPRP, the “shrunken log2 fold change” value turned out to be 0.21.
For RRIRARPPRLPRPRPRPRQEPRP the value was 0.503; for RRIRTRPPRLPRPRPRPKEEPRP, 0.00448; for RRIRHRPPRLPRPRPRPMDFPRP, 3.65.
Take RRIRERPPRLPRPRPRPVGEPRP: the “shrunken log2 fold change” value is -0.0892.
The figure for RRIRNRPPRLPRPRPRPQVKPRP is 0.0117; for RRIRNRPPRLPRPRPRPWQCPRP it is -0.108.
The figure for RRIRYRPPRLPRPRPRPEVNPRP is -0.0081; for RRIRYRPPRLPRPRPRPEFQPRP it is -0.47; for RRIRMRPPRLPRPRPRPQKIPRP it is 0.255.
For RRIRSRPPRLPRPRPRPYVNPRP the value was -0.283; for RRIRRRPPRLPRPRPRPKMGPRP, -0.0227.
As to RRIRMRPPRLPRPRPRPIEEPRP, the “shrunken log2 fold change” value was 0.278.
In the case of RRIRYRPPRLPRPRPRPSSRPRP, the “shrunken log2 fold change” value was -0.0331.
The figure for RRIRCRPPRLPRPRPRPQMSPRP is -0.201; for RRIRCRPPRLPRPRPRPSIDPRP it is -0.505.
Regarding RRIRWRPPRLPRPRPRPCCTPRP, the “shrunken log2 fold change” value is 0.0894.
With RRIRARPPRLPRPRPRPCLFPRP, the “shrunken log2 fold change” value is -0.131.
Take RRIRRRPPRLPRPRPRPYRQPRP: the “shrunken log2 fold change” value is -0.13.
The figure for RRIRMRPPRLPRPRPRPMESPRP is -0.00987; for RRIRKRPPRLPRPRPRPRYHPRP it is -0.17.
The figure for RRIRGRPPRLPRPRPRPHQHPRP is 0.112.
The figure for RRIRVRPPRLPRPRPRPVGMPRP is -0.0289; for RRIRTRPPRLPRPRPRPWKMPRP it is -0.0793; for RRIRPRPPRLPRPRPRPQCQPRP it is 0.00656.
Take RRIRSRPPRLPRPRPRPEMYPRP: the “shrunken log2 fold change” value was -0.0223.
For RRIRERPPRLPRPRPRPCSNPRP the value was 0.0168; for RRIRDRPPRLPRPRPRPHTFPRP, -0.111.
Consider RRIRGRPPRLPRPRPRPPSEPRP, for which the “shrunken log2 fold change” value came out at 0.856.
For RRIRHRPPRLPRPRPRPTPYPRP the value was -0.0416.
The figure for RRIRRRPPRLPRPRPRPMLIPRP is -0.0813; for RRIRKRPPRLPRPRPRPCYIPRP it is -0.0235.
RRIRHRPPRLPRPRPRPDIRPRP: the “shrunken log2 fold change” value was 0.0226.
The figure for RRIRDRPPRLPRPRPRPDHQPRP is -0.0643.
RRIRHRPPRLPRPRPRPIWFPRP: the “shrunken log2 fold change” value worked out at 1.65.
The figure for RRIRFRPPRLPRPRPRPQQTPRP is -0.0409; for RRIRSRPPRLPRPRPRPFRDPRP it is -0.123.
The figure for RRIRCRPPRLPRPRPRPVAVPRP is -0.043; for RRIRVRPPRLPRPRPRPTYIPRP it is -0.51; for RRIRTRPPRLPRPRPRPPMEPRP it is -0.00995.
The figure for RRIRARPPRLPRPRPRPKQWPRP is 0.587; for RRIRIRPPRLPRPRPRPRFCPRP it is -0.00189; for RRIRTRPPRLPRPRPRPERIPRP it is -0.18.
Turning to RRIRERPPRLPRPRPRPLIKPRP, the “shrunken log2 fold change” value is -0.12.
The figure for RRIRNRPPRLPRPRPRPYAEPRP is -0.525; for RRIRWRPPRLPRPRPRPDSFPRP it is 0.00192.
For RRIRDRPPRLPRPRPRPHEMPRP the value was -0.0853; for RRIRYRPPRLPRPRPRPFYRPRP, -0.0056.
For RRIRERPPRLPRPRPRPHDQPRP the value was 0.0804; for RRIRIRPPRLPRPRPRPREIPRP, -0.0162; for RRIRKRPPRLPRPRPRPVAYPRP, -0.109.
As for RRIRMRPPRLPRPRPRPPKGPRP, the “shrunken log2 fold change” value turned out to be 0.873.
For RRIRNRPPRLPRPRPRPPYFPRP the value was -0.172; for RRIRWRPPRLPRPRPRPLGMPRP, -0.156.
For RRIRARPPRLPRPRPRPVKGPRP the value was -0.00146; for RRIRDRPPRLPRPRPRPEYVPRP, -0.00373.
For RRIRGRPPRLPRPRPRPMEAPRP the value was 1.27; for RRIRYRPPRLPRPRPRPELMPRP, -0.128.
As to RRIRHRPPRLPRPRPRPYIPPRP, the “shrunken log2 fold change” value was -0.194.
In the case of RRIRHRPPRLPRPRPRPLAGPRP, the “shrunken log2 fold change” value was found to be 0.312.
The figure for RRIRYRPPRLPRPRPRPIVLPRP is -0.213; for RRIRTRPPRLPRPRPRPTFHPRP it is -0.174; for RRIRTRPPRLPRPRPRPKSYPRP it is -0.364.
The figure for RRIRYRPPRLPRPRPRPYWFPRP is -0.142.
On to RRIRMRPPRLPRPRPRPQMFPRP, for which the “shrunken log2 fold change” value was -0.0181.
For RRIRCRPPRLPRPRPRPHMYPRP the value was -0.715.
For RRIRRRPPRLPRPRPRPCRIPRP the value was -0.0873; for RRIRERPPRLPRPRPRPQSHPRP, -0.268; for RRIRCRPPRLPRPRPRPDKWPRP, 0.184.
For RRIRKRPPRLPRPRPRPQEMPRP the value was -0.00136; for RRIRSRPPRLPRPRPRPFDMPRP, 0.394.
Regarding RRIRYRPPRLPRPRPRPQCRPRP, the “shrunken log2 fold change” value is -0.23.
The figure for RRIRNRPPRLPRPRPRPLFFPRP is -0.217.
For RRIRMRPPRLPRPRPRPIGLPRP the value was -0.062; for RRIRIRPPRLPRPRPRPKPIPRP, -0.0437.
As to RRIRCRPPRLPRPRPRPGIIPRP, the “shrunken log2 fold change” value is -0.00738.
For RRIRVRPPRLPRPRPRPIDEPRP the value was 0.0357; for RRIRARPPRLPRPRPRPNIDPRP, -0.0883.
For RRIRKRPPRLPRPRPRPWIPPRP, the “shrunken log2 fold change” value worked out at 0.0372.
As for RRIRKRPPRLPRPRPRPIEPPRP, the “shrunken log2 fold change” value was 0.0245.
The figure for RRIRWRPPRLPRPRPRPHQVPRP is -0.145.
The figure for RRIRSRPPRLPRPRPRPIQKPRP is 0.0496.
